This note sets out measurements from patent US20160129100A1 (UVIC INDUSTRY PARTNERSHIPS, published 2016).

T1: Plasminogen-depleted human fibrinogen (human, UniProt P02671 20-629; P02675 31-491; P02679 27-437)
T1 construct: Bought protein, immobilized at 0.5 µg per well
T1 sequence 1: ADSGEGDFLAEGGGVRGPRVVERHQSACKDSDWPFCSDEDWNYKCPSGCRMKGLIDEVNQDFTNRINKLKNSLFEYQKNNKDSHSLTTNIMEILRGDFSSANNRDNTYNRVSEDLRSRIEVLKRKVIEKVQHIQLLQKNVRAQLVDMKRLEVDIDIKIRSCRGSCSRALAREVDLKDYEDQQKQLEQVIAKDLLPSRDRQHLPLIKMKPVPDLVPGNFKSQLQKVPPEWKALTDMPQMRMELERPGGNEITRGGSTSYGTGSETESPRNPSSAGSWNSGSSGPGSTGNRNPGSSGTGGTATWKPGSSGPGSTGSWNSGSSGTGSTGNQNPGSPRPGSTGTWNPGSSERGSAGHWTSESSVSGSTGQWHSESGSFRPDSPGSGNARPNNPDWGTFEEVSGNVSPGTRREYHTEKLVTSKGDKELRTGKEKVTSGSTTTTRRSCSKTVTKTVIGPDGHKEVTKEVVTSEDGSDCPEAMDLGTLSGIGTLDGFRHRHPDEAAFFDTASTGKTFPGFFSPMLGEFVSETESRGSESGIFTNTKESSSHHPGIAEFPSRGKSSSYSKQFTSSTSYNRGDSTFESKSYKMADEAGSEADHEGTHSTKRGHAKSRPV
T1 sequence 2: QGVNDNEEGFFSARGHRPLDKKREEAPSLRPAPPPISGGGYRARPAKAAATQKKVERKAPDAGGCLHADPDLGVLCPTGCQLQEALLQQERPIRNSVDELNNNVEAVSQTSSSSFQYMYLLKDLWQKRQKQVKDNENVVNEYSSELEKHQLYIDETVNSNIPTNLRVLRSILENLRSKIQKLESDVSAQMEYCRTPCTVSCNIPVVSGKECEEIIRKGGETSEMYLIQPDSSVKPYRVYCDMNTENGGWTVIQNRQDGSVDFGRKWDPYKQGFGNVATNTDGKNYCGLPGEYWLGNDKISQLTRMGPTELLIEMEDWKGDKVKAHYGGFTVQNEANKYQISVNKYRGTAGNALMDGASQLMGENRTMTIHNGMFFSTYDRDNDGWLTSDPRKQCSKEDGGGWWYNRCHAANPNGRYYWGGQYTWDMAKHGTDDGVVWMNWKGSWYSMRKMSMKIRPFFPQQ
T1 sequence 3: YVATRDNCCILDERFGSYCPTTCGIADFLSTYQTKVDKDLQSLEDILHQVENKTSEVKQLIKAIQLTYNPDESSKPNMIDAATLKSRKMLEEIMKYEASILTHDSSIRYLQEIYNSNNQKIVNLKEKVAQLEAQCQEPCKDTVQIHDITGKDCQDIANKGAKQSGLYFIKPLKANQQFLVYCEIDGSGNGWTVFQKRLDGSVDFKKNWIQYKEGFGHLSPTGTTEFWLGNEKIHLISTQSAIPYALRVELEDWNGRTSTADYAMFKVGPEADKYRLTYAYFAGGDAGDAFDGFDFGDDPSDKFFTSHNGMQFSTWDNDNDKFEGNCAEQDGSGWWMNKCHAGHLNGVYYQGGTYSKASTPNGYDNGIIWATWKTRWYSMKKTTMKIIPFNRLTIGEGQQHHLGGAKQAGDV

B1: scrambled version of Tp0751 peptide 10 (p10scr) (peptide)
peptide: HHHHHHTSRVKLTISFERSLVNRTRTARFI
notes: Scrambled synthetic peptide; also called p10 scrambled peptide; scrambled version of peptide 10
B2: Tp0751 peptide p10 (peptide)
peptide: HHHHHHRKTVSFLTRNTAISSIRRRLEVTF
notes: One of 13 overlapping synthetic 24-mers spanning Tp0751 T46-P237; also called peptide 10
B3: Tp0751 peptide p6 (peptide)
peptide: HHHHHHQGALQHLLAGLWIQTEISPNSGDI
notes: One of 13 overlapping synthetic 24-mers spanning Tp0751 T46-P237; also called peptide 6
B4: Tp0751 peptide p7 (peptide)
peptide: HHHHHHTEISPNSGDIHPLLFFDREHAEIT
notes: One of 13 overlapping synthetic 24-mers spanning Tp0751 T46-P237; also called peptide 7
B5: Tp0751 peptide p5 (peptide)
peptide: HHHHHHAMRIALWNRATHGEQGALQHLLAG
notes: One of 13 overlapping synthetic 24-mers spanning Tp0751 T46-P237; also called peptide 5
B6: Tp0751 peptide p3 (peptide)
peptide: HHHHHHTDPRSHGNAPPAPVGGAAQTHTQP
notes: One of 13 overlapping synthetic 24-mers spanning Tp0751 T46-P237; also called peptide 3
B7: Tp0751 peptide p8 (peptide)
peptide: HHHHHHFFDREHAEITFSRASVQEIFLVDS
notes: One of 13 overlapping synthetic 24-mers spanning Tp0751 T46-P237; also called negative control peptide

T3 sequence (P02452 162-1218, chain 1 of 2): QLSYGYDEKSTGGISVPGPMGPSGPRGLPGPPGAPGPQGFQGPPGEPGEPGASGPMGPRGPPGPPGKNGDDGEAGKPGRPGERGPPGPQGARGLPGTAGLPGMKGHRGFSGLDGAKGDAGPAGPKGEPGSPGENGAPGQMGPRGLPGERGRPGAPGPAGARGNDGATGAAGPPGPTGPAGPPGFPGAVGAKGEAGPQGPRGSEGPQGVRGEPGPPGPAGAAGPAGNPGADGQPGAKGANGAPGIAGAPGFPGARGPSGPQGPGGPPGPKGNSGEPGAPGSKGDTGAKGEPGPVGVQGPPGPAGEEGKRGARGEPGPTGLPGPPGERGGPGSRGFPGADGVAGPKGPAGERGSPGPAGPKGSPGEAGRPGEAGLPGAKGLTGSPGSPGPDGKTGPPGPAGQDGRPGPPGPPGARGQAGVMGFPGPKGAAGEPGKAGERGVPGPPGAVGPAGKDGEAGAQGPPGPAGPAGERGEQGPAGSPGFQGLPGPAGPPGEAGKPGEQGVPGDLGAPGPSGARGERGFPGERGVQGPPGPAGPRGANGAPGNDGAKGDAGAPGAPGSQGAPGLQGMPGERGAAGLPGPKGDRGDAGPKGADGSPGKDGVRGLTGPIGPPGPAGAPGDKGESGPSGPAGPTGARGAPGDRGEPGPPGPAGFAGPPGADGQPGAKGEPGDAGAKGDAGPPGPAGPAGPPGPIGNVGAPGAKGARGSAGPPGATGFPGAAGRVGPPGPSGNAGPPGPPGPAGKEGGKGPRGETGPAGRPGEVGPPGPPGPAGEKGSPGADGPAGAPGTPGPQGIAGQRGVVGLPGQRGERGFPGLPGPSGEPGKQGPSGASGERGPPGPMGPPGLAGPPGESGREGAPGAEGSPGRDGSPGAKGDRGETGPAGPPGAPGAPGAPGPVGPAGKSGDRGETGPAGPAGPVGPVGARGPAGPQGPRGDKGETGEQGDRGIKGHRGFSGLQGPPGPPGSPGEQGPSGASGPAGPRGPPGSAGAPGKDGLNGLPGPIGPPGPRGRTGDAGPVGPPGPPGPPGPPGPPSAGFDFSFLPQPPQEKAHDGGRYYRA
T3 sequence (P08123 80-1119, chain 2 of 2): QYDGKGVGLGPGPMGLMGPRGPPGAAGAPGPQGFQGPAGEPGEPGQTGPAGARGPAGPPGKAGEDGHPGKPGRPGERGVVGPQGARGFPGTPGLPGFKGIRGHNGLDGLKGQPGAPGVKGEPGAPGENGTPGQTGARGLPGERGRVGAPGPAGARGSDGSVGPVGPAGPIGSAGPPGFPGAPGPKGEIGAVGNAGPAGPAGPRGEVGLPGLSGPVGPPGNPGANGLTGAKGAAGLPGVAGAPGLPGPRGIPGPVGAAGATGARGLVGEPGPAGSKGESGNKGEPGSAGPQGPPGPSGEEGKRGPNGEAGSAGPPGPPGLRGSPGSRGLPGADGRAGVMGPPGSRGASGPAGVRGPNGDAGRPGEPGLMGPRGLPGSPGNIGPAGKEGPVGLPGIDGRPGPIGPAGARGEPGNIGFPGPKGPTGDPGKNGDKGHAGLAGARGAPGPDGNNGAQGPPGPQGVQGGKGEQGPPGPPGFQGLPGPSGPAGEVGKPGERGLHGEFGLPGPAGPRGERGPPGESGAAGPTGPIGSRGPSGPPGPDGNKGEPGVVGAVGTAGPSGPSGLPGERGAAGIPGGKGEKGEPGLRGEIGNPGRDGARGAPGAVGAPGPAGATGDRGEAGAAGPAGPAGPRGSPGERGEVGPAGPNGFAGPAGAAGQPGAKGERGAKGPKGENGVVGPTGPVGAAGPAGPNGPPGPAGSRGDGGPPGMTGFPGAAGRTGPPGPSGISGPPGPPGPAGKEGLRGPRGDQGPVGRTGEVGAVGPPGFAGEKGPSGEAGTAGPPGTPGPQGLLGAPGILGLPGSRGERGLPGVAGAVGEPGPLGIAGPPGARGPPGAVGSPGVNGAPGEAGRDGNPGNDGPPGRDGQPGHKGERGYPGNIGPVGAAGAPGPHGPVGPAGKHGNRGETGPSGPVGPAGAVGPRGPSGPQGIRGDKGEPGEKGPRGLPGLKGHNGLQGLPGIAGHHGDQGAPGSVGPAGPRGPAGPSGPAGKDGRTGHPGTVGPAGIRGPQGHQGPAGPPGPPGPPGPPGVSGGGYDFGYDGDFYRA
T2 sequence (P02751 other isoform, or with tags, fused parts or gaps limits assumed): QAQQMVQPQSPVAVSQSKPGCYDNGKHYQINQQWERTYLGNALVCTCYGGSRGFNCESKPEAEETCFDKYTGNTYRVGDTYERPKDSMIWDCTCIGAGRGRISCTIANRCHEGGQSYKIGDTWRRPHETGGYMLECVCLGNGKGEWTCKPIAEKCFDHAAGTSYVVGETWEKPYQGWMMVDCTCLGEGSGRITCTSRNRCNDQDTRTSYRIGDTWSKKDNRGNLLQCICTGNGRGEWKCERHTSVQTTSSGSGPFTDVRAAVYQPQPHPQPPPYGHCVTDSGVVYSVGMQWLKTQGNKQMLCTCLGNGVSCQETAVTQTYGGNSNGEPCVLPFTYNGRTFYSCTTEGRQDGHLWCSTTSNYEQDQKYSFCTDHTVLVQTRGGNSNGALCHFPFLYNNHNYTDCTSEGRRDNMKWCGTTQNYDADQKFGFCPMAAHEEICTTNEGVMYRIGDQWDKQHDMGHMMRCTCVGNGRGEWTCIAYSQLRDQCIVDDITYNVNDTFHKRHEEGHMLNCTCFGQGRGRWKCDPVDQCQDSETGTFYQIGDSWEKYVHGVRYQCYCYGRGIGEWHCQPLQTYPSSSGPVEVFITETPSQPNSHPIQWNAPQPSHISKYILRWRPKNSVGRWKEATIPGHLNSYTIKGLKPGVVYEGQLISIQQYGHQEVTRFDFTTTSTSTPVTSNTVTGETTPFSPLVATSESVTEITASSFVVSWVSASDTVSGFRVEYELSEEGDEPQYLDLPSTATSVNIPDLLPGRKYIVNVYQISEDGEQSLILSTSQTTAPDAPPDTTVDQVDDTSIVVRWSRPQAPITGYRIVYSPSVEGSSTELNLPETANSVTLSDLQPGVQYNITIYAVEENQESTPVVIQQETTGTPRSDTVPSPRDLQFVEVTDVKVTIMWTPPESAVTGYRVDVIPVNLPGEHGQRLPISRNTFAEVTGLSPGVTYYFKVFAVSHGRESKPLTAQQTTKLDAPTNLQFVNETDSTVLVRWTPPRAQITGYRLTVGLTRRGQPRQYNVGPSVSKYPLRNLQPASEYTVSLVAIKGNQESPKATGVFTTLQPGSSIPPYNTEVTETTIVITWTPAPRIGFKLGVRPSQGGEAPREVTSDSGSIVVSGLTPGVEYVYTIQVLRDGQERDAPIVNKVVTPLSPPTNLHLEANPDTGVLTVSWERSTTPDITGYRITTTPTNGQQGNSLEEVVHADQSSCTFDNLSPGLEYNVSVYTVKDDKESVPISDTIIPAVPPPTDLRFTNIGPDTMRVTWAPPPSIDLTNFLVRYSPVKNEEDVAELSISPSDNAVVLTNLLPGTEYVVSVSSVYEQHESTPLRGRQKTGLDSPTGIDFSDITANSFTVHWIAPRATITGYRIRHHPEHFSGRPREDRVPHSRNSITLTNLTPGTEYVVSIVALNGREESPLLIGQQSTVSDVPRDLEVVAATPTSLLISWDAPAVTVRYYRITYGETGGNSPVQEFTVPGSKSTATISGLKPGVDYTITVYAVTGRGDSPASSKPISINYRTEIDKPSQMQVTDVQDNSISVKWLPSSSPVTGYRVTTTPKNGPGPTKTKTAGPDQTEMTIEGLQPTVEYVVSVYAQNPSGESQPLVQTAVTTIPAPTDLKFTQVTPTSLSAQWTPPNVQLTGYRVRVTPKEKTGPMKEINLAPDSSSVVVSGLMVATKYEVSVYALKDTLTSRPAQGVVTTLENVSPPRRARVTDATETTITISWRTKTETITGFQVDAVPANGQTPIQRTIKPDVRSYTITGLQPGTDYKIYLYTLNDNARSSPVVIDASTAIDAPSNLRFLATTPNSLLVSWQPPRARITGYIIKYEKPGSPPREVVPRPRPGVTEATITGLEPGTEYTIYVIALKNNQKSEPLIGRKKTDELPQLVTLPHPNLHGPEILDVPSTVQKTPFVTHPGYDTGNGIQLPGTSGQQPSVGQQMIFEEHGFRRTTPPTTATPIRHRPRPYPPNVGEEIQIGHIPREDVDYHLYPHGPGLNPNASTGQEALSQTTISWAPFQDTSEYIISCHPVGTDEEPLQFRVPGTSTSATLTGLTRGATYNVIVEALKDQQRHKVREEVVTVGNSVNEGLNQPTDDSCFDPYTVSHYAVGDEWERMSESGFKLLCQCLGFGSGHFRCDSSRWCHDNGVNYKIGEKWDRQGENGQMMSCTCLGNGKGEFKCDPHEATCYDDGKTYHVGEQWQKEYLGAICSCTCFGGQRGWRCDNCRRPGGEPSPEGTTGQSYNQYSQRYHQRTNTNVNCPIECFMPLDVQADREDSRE

For one test, the target named is T1, Plasminogen-depleted human fibrinogen. Briefly: 96-well plate binding assay, immobilized host protein, His-tagged peptide, A600.
B1: the binding result is recorded as “binds”.

For the molecule B2, the binding result is “binds”.

The target is the same in a further test. As to the kind of experiment: 96-well plate binding assay, immobilized host protein 0.5 µg/well, peptide 2.0 µg/well, A600.
In the case of HHHHHHSIRRRLEVTFESHEVIHVRAVEDV (also called peptide 11) [Tp0751 peptide p11], the binding result was “binds”.

B3: the binding result was “binds”.

The next test addresses T2, fibronectin isolated from human plasma (human, UniProt P02751 32-2296).
T2 construct: Bought protein, immobilized at 0.5 µg per well
Briefly: 96-well plate binding assay, immobilized host protein 0.5 µg/well, His-tagged peptide, A600.
With B4, the binding result is on record as “no binding (tested: 2.0 µg per well)”.

For the molecule B5, the binding result is listed as “no binding (tested: 2.0 µg per well)”.

Regarding HHHHHHTSNDWGQSLAILHEPQLGILQAGI (Scrambled synthetic peptide) [scrambled version of Tp0751 peptide 6 (p6scr)], the binding result is recorded as “no binding (tested: 2.0 µg per well)”.

With HHHHHHMRLTPGWHTANQIRPQAQGVATAA (Scrambled synthetic peptide) [scrambled version of Tp0751 peptide 4 (p4scr)], the binding result is “no binding (tested: 2.0 µg per well)”.

As for B6, the binding result is on record as “no binding (tested: 2.0 µg per well)”.

Take B7: the binding result was “no binding (tested: 2.0 µg per well)”.

The target of the next test is T1, Plasminogen-depleted human fibrinogen. The description is as above.
For the molecule B4, the binding result was “no binding (tested: 2.0 µg per well)”.

On to B5, for which the binding result is listed as “no binding (tested: 2.0 µg per well)”.

For HHHHHHTSNDWGQSLAILHEPQLGILQAGI (Scrambled synthetic peptide) [scrambled version of Tp0751 peptide 6 (p6scr)], the binding result was “no binding (tested: 2.0 µg per well)”.

For HHHHHHMRLTPGWHTANQIRPQAQGVATAA (Scrambled synthetic peptide) [scrambled version of Tp0751 peptide 4 (p4scr)], the binding result is recorded as “no binding (tested: 2.0 µg per well)”.

Turning to B6, the binding result is on record as “no binding (tested: 2.0 µg per well)”.

As for B7, the binding result was “no binding (tested: 2.0 µg per well)”.

The next test concerns the target T3, Human collagen type I (human, UniProt P02452 162-1218; P08123 80-1119).
T3 construct: Bought protein, immobilized at 0.5 µg per well; also called collagen I
Described as above.
As to B4, the binding result is reported as “no binding (tested: 2.0 µg per well)”.

Regarding B5, the binding result is given as “no binding (tested: 2.0 µg per well)”.

Consider HHHHHHTSNDWGQSLAILHEPQLGILQAGI (Scrambled synthetic peptide) [scrambled version of Tp0751 peptide 6 (p6scr)], for which the binding result is listed as “no binding (tested: 2.0 µg per well)”.

For the molecule HHHHHHMRLTPGWHTANQIRPQAQGVATAA (Scrambled synthetic peptide) [scrambled version of Tp0751 peptide 4 (p4scr)], the binding result is listed as “no binding (tested: 2.0 µg per well)”.

Consider B6, for which the binding result is given as “no binding (tested: 2.0 µg per well)”.

Turning to B7, the binding result is “no binding (tested: 2.0 µg per well)”.
